Reference: patent publication US10494423B2, “Maytansinoid derivatives with peptide linker and conjugates thereof” (priority 2011, dated 2019)

Molecular target: T1, cathepsin B (Bos taurus, UniProt P07688)
T1 construct: cathepsin B (bovine spleen; EMD Biosciences); purchased EMD Biosciences; host or cells: bovine spleen (tissue-derived enzyme)
Assay: In vitro cleavage of conjugate by cathepsin B
Format: biochemical, bovine
Details: 4.6 μM conjugate, 0.9 μM cathepsin B, pH 6.0, 37° C., 0-26 h
Description: huC242-3b conjugate (4.6 μM) was incubated with 0.9 μM cathepsin B (bovine spleen; EMD Biosciences) in pH 6.0 buffer containing 0.6 mM CaCl2/MgCl2 and 2 mM DTT (dithiothreitol) at 37° C. 100 μl aliquots were taken at various time points (0, 1, 3, 8, 17, and 26 h) and free maytansinoids were quantified using a mixed-mode chromatography method (Fleming, et al, Analytical Biochemistry, 2005, 340, 272). Briefly, a HISEP shielded hydrophobic phase column (5 μm particle size, 4.6×250 mm length, Supelco, Bellefonte, Pa., USA) was used for analyzing Ab-DM1 conjugates. Detection was at 252 and 280 nm (extracted from PDA spectra). The flow rate was 0.7 ml/min. Mobile phase A consisted of 100 mM ammonium acetate (pH 7.0). Mobile phase B was 100% acetonitrile. The column was equilibrated at 25% B followed by a linear gradient over 25 min to 40% B after sample injection. […] Synthesized compound 5 had the same retention time and mass spectrum as this metabolite.

B1: huC242-3b: huC242 antibody conjugated via SMCC linker to compound 2; 3.3 maytansinoids per antibody (conjugate, chains of the INN, looked up)
VH: QVQLVQSGAEVKKPGETVKISCKASDYTFTYYGMNWVKQAPGQGLKWMGWIDTTTGEPTYAQKFQGRIAFSLETSASTAYLQIKSLKSEDTATYFCARRGPYNWYFDVWGQGTTVTVSS
VL: DIVMTQSPLSVPVTPGEPVSISCRSSKSLLHSNGNTYLYWFLQRPGQSPQLLIYRMSNLVSGVPDRFSGSGSGTAFTLRISRVEAEDVGVYYCLQHLEYPFTFGPGTKLELK
modifications: SMCC-linked maytansinoid compound 2, DAR 3.3
notes: huC242 antibody conjugated via SMCC linker to compound 2; 3.3 maytansinoids per antibody
  released metabolite on cathepsin B cleavage: sole released metabolite 5 was detected
